We go through three substances from patent publication US7318921B2, “Therapeutic compositions that alter the immune response” (AltaRex Medical Corp., priority 1996, dated 2008).

Assay [1] deals with CA125 specific mouse T-cells. The assay is described as follows: Proliferation of CA125 specific T-cells with stimulated peritoneal macrophages ([3H]-thymidine uptake). It counts as cell-based. The settings on record: macrophages stimulated with agent, presented to CA125 specific mouse T-cells; 1 μug/ml of the antibody and 100 Units/ml CA125; mean of three experiments. An excerpt: Enhanced antigen-presentation of antigen-antibody complexes was attributed to facilitated antigen uptake via the Fcγ-receptor (macrophages, dendritic cells) or membrane-bound Ig (B cells) on professional antigen-presenting cells (APC). […] Accordingly, various professional APC can be involved in the preferential presentation of the CA125-MAb-B43.13 complex. We tested B cells with two different specificities as well as macrophages as APC: CA125-specific B cells (from mice immunized with CA125) and anti-MAb-B43.13-specific B cells (from mice immunized with MAb-B43.13). Normal B cells served as control. […] Enhanced presentation of immune complexes by macrophages and dendritic cells is mediated by preferential uptake via the FcγR. FIG. 4 confirms that CA125 is presented more efficiently by macrophages, if complexed with an antigen specific antibody.
Better cellular immune response was observed when the UV exposed antibody was presented in association with the antigen to T-cells. Thus, macrophages isolated from mouse peritoneal cavities were stimulated with native B43.13 or UV exposed B43.13 in association with CA125 and presented to CA125 specific mouse T-cells isolated from mice injected with CA125. Control experiments included stimulation of the macrophages without the antigen. […]

Assay [2] has as its target T1, CA125 (Homo sapiens, UniProt Q8WXI7). The assay can be described thus: Inhibition of binding of patients' anti-CA125 antibodies to CA125 (solid phase); classification Ab3/Ab1c. The settings on record: inhibitor at 10500 U/ml. As to the method:
Anti-CA 125 positive samples were tested for inhibition of their binding to CA 125 (solid phase) by CA 125, MAb-B43.13 scFv, MAb-B27.1 F(ab′), or MAb M11 F(ab′). Single chain MAb-B43.13, F(ab′) MAb-B27.1, and F(ab′) M11 were used in the inhibition studies to avoid non-specific inhibition of the Fc portion of the antibody and cross-reactivity due to HAMA. To be considered to be significant, inhibition had to be at least 15%.
Thus, if the patients serum contained anti-CA125 antibodies that were inhibitable by MAb-B43.13 only, it was classified as containing Ab3; those inhibitable by MAb-B27.1 were classified as Ab1c. In other words, injecting a binding agent such as an antibody against a single epitope on a multi-epitopic antigen leads to generation of a humoral and cellular response against a different epitope on the antigen.
Method: 86 ovarian cancer patients with active disease were tested for the presence of antibodies against CA125. None of the patients had antibodies against CA125 before injection of MAb-B43.13. The patients were injected with 2 mg of MAb-B43.13 at varying time intervals (e.g., see Table 5 for some of the patients). Sera from these patients were analyzed for the presence of human anti-CA125 antibodies by their ability to bind to the CA125 [R. Madiyalakan et al, Hybridoma, 14:199-203 1995)]. […]

In the next assay the test system is FcγR. To be noted: complexed with anti-tetanus toxoid IgG; measured by TH cell activation; cited from earlier work.
Assay [3] addresses T1, CA125. The assay is described as follows: in vitro studies, method not stated.

With “CA125: soluble multi-epitopic tumor associated antigen of epithelial ovarian cancers”, the “STIMULATION INDEX” value in assay [1] came out at 2.76. For the same substance, the “Inhibition, No. of Positives/Total” value with CA125 [2] (anti-CA125 positive samples of patients injected with MAb-B43.13, positive = inhibition at least 15%) is on record as 26/28. Also, the “Inhibition, positives (%)” value with CA125 [2] (anti-CA125 positive samples) is “(92.8) %”.
With tetanus toxoid, the “increase in processing and presentation of the antigen” value in the assay with FcγR was 10-1000 -fold.
The substance MAb-B43.13 (antibody) came in with a binding capacity (units of CA 125 per 1 ng of MAb-B43.13) in the assay with CA125 [3] of 10.
